Source: patent US8299028B2, “Chimeric peptide antagonist for GPCR135 or GPCR142” (Janssen Pharmaceutica NV, priority 2007, dated 2012)

Legend:
human LGR7 = molecular target: T1, human LGR7 (Homo sapiens, UniProt Q9HBX9); assay: Agonist assay, stimulation of β-gal expression in SK-N-MC/CRE-β-gal cells; type: cell-based; design: expressed in transfected cells; host or cells: SK-N-MC/CRE-β-gal
T1 sequence (Q9HBX9 1-757): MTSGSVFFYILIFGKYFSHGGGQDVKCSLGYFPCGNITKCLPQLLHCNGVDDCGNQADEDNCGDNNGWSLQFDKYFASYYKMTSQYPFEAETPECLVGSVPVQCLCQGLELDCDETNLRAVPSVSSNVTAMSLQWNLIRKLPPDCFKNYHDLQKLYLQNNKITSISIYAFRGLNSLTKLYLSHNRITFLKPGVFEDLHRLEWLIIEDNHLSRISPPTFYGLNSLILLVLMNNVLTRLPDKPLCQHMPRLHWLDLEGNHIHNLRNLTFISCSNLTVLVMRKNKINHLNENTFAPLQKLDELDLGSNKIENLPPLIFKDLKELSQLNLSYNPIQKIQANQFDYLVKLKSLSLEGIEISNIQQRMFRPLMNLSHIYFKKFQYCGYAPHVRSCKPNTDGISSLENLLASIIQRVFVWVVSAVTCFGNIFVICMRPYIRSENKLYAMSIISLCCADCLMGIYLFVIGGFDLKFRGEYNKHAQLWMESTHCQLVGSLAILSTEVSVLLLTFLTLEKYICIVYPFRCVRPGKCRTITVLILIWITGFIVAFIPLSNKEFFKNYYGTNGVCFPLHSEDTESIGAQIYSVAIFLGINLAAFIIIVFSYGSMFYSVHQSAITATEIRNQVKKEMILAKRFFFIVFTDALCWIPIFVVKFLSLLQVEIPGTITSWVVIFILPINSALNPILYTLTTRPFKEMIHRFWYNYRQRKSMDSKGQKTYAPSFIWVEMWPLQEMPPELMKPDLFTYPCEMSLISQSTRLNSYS
Experimental: FIG. 1 provides a characterization of mutant relaxin-3 peptides as ligands for human GPCR135, GPCR142, and LGR7. The truncated peptides were tested for their GPCR135 and GPCR142 agonist activity using SK-N-MC/CRE-β-gal cells expressing either human GPCR135 (A) or GPCR142 (B). Agonists for GPCR135 or GPCR142 inhibit forskolin induced β-galactosidase (β-gal) expression. The LGR7 agonist activity of the truncated peptides was tested using SK-N-MC/CRE-β-gal cells expressing Gαs-linked human LGR7 (C). Human relaxin-3 was used as positive control in both cases. β-gal expression was measured by colorimetric assay using CPRG as the substrate and reading the absorbance at 570 nm.
All peptides were tested for their GPCR135, GPCR142, and LGR7 agonist activities in SK-N-MC/CRE cells expressing the relevant receptors as described by Liu et al., 2005b. […] An increase in cAMP concentration in these cells is associated with increased β-gal expression, which can be measured using Chlorophenol Red-β-D-Galactopyranoside (CRGP) as a substrate and reading the optical absorbance at 570 nm. […] The results were analyzed using GraphPad Prism 4.0 software. […] The agonism and antagonism of peptides for rat LGR7 was assayed using a cAMP luminescence assay. […] The cAMP in the cells was measured with a cAMP detection kit (DiscoveRx HitHunter, Cat. #90-0041) according to the manufacturer's protocol. […]

human GPCR135 = molecular target: T2, human GPCR135 (Homo sapiens, UniProt Q9NSD7); assay: Antagonism: rightward shift of relaxin-3 dose-response curve, SK-N-MC/CRE-β-gal reporter assay; type: cell-based; design: expressed in transfected cells; settings: pharmacological characterization
T2 sequence (Q9NSD7 1-469): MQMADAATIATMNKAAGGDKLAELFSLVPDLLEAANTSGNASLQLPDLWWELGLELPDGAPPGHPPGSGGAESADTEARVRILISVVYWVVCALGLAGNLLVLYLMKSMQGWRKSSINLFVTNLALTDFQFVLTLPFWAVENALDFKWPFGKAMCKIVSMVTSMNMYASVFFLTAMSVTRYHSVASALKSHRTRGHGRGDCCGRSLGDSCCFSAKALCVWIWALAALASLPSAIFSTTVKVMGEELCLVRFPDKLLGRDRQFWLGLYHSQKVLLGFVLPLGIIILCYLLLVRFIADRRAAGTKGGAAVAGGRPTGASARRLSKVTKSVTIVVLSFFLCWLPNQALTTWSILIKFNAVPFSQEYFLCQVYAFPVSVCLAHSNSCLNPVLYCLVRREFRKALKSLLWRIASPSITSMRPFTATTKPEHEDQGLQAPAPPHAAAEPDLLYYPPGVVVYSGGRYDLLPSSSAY
Experimental: In a functional assay using SK-N-MC/CRE-β-gal cells expressing human GPCR135 (A), GPCR142 (B) or LGR7 (C), ascending concentrations of relaxin-3 (R3) were used to generate dose response curves either in the absence or presence of 10 nM, 100 nM or 1 μM R3(BΔ23-27)R/I5. For Gαi linked GPCR135 and GPCR142, the assay was performed as inhibition of forskolin-induced β-gal expression. LGR7 is linked to Gαs, therefore addition of forskolin is not necessary. The antagonism of R3(BΔ23-27)R/I5 is indicated by the rightward-shift of the relaxin-3's dose-response curve.
All peptides were tested for their GPCR135, GPCR142, and LGR7 agonist activities in SK-N-MC/CRE cells expressing the relevant receptors as described by Liu et al., 2005b. […] An increase in cAMP concentration in these cells is associated with increased β-gal expression, which can be measured using Chlorophenol Red-β-D-Galactopyranoside (CRGP) as a substrate and reading the optical absorbance at 570 nm. […] The results were analyzed using GraphPad Prism 4.0 software. […] The agonism and antagonism of peptides for rat LGR7 was assayed using a cAMP luminescence assay. […] The cAMP in the cells was measured with a cAMP detection kit (DiscoveRx HitHunter, Cat. #90-0041) according to the manufacturer's protocol. The results were analyzed using GraphPad Prism 4.0 software.

With “R3(BΔ23-27)R: Relaxin-3 mutant: B-chain SEQ ID NO:15 (Gly23-Trp27 deleted plus C-terminal Arg), relaxin-3 A-chain SEQ ID NO:13” the EC50 (human LGR7; human LGR7 agonist response, mean ± SEM, NA = no agonist activity observed) was > 1000 nM, the “agonist activity at human LGR7” value (human LGR7; stimulation of β-gal expression) was “no LGR7 agonist activity” and the “GPCR135 antagonist character” value (human GPCR135) was “GPCR135 antagonists”.
